Assay results from patent publication KR20220001106A (dated 2022).
Substitutions are numbered along the chain they refer to.

B1: Hz1 (humanized antibody made with SEQ ID NO 28 and SEQ ID NO 29) (antibody, V domains shown)
VH: EVQLVESGGGLVKPGGSLRLSCAASGIDLNRYSLTWVRQAPGKGLEWVGIVGGSGVTYYANWAKGRFTISRDSAKNSLYLQMNSLRAEDTAVYFCARGSDRSAYAPDIWGPGTLVTVSS
VL: DIQMTQSPSSLSASVGDRVTINCQSSQSIYSNNYLAWYQQKPGKPPKLLLYQASKLASGVPSRFSGSGSGTDFTLTISSLQPEDVATYYCLGVYDDDADNAFGGGTELEIKR
notes: Whole IgG from vector pCEP6-WPRE with an Fc part
B2: Hz2-F (antibody with SEQ ID NO 32 and SEQ ID NO 31) (antibody, human IgG1, L234A L235A, V domains shown)
VH: B1 VH with K13Q, A24V, V37I, G49A, S73D, A74S, S77T, F94Y, P111Q
VL: B1 VL with M4L, N22T, P45A, V85F, G104Q, E107K, L108V
notes: copies: 2 + 2
B3: Hz2 (humanized antibody made with SEQ ID NO 30 and SEQ ID NO 31) (antibody, V domains shown)
VH: B1 VH with K13Q, A24V, V37I, G49A, S73D, A74S, S77T, F94Y, P111Q
VL: B1 VL with M4L, N22T, P45A, V85F, G104Q, E107K, L108V
notes: as for B1
B4: Lu007 (SEQ ID NO 33, SEQ ID NO 34) (antibody, V domains shown)
VH: EVQLVESGGGLVQPGGSLRLSCAASGYDFTHYGMNWIRQAPGKGLEWVGWINTYTGEPTYAADFKRRFTFSLDTSKSTVYLQMNSLRAEDTAVYYCAKYPHYYGTSHWYFDVWGQGTLVTVSS
VL: DIQLTQSPSSLSASVGDRVTITCSASQDISNYLNWYQQKPGKAPKVLIYFTSSLHSGVPSRFSGSGSGTDFTLTISSLQPEDFATYYCQQYSTVPWTFGQGTKVEIKR
notes: Tested as a purified whole antibody, detected with anti-hIgG-Fc; also called variant ranibizumab; variant Lucentis
B5: RIgG1 (rabbit antibody made with SEQ ID NO 24 and SEQ ID NO 25) (antibody, V domains shown)
VH: QSVEESGGRLVTPGTPLTLTCTVSGIDLNRYSLTWVRQAPGKGLEWIGIVGGSGVTYYANWTKGRFTISKTSTTVDLKMTSLTTEDTATYFCARGSDRSAYAPDIWGPGTLVTISS
VL: ELDMTQTPSSVSAAVGGTVTINCQSSQSVYSNNYLAWYQQKPGQPPKLLLYQASKLASGVSSRFSGSGSGTHFTLTISGVQCDDAATYYCLGVYDDDADNAFGGGTELEILR
notes: Converted from scFv to whole IgG in vector pCEP6-WPRE, which carries an Fc part; The ELISA detected it with anti-hIgG-Fc; also called 2-19 (IgG form)

Biological target: T1, recombinant human VEGF165 (Sino biological) (human, UniProt P15692-4 27-191)
T1 construct: Sino Biological VEGF165 was used in the Octet assay
T1 sequence (P15692 other isoform, or with tags, fused parts or gaps limits assumed): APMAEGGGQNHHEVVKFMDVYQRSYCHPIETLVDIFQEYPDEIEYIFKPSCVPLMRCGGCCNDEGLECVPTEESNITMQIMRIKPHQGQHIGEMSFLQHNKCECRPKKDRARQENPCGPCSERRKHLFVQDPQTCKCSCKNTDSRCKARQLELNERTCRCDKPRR
Assay: Octet red96E BLI, VEGF165 amine-coupled on AR2G sensor, antibody as analyte, 30 C

| Binder | Kd [pM] | koff [s⁻¹] | kon [M⁻¹ s⁻¹] |
| --- | --- | --- | --- |
| B1 | 4.71 | 3.22e-06 | 685000 |
| B2 | 3.98 | 3.08e-06 | 775000 |
| B3 | 1.93 | 9.73e-07 | 505000 |
| B4 | 12.2 | 2.89e-06 | 237000 |
| B5 | 3.98 | 3.08e-06 | 775000 |
